What was measured:
[1] = system: KIDS cPLA2 protein in hippocampal dentate gyrus; assay: Immunohistochemical dyeing of brain slices after kainic acid stimulation; format: in vivo, cPLA2a knockout mouse, C57/Black 6J mouse, Wister rat; conditions: anti-KIDS cPLA2 stump antibody
Description: Brains of cPLA2a knockout mouse and C57/Black 6J mouse of 6-10 weeks age and Wister rat of 3 weeks age stimulated by kainic acid were fixed with 4% paraformaldehyde and then frozen slices were prepared. Immunoreaction of an anti-KIDS cPLA2-specific stump antibody with the brain slice was carried out overnight at 4° C. and expression of KIDS cPLA2 protein was confirmed by a secondary antibody labeled with gold colloid.

nerve stem cells = assay: Expression of KIDS cPLA2 in nerve stem cells after stimulation; format: cell-based; conditions: kainic acid 10 μM, probe P19-P27, FIG. 14
Description: Then expression of KIDS cPLA 2 of the present invention using nerve stem cells by means of stimulation by kainic acid (10 μM), by kainic acid and CNQX (10 μM KA and 20 μM CNQX) and by glutamic acid (50 μM) was investigated.
The result is shown in FIG. 14 which is a picture as a substitute for a drawing. In FIG. 14, the probe used is P90-P27 of 252 bp (the said sequence is a sequence of a moiety which is common in the full-length cPLA2) in the upper column, P19-P27 of 290 bp (the said sequence contains a sequence specific to KIDS cPLA2 of the present invention) in the second column and G3 PDH and nestin in the lower two columns as controls.
The lanes in FIG. 14 are control and stimulations by kainic acid (KA (10 μM)), by kainic acid and CNQX (KA (10 μM)+CNQX (20 μM)) and by glutamic acid (Glu (50 μM)) from the left side.

[2] = system: KIDS cPLA2 mRNA in hippocampal dentate gyrus; assay: In situ hybridization of brain slices after kainic acid stimulation; format: in vivo, Wister rat; conditions: rat brain, riboprobe C, with or without kainic acid stimulation
Description: Brain of Wister rat of 3 weeks age stimulated by kainic acid was fixed by 4% paraformaldehyde and then a frozen slice was prepared. Each of the radio-labeled riboprobes B, C and D was subjected to a hybridization reaction with the frozen slice and the labeled image of the slice from each probe was confirmed to be same. Then, frozen slice of the brain was prepared again using riboprobe C with or without a kainic acid stimulation and an expression pattern of KIDS cPLA2 mRNA was investigated.

[3] = Enzymatic (phospholipase A2) activity of KIDS cPLA2 and cPLA2α on radiolabelled PC substrates; format: biochemical; conditions: difference from the control
Description: Then enzymatic activity of cPLA2α and KIDS cPLA2 of the present invention were investigated. There were used 1-Pam-2-[^14C] arachidonoyl-PC (black dots (●) in FIG. 7), 1-Pam-2-[^14C]Iinoleoyl-PC (black triangles (▴) in FIG. 7), 1-Pam-2-[^14C]oleoyl-PC (black squares (▪) in FIG. 7) and 1-Pam-2-[^14C]palmitoyl-PC (asterisks (*) in FIG. 7) as the substrates for testing the enzymatic activity of each of them. In FIG. 7, the left side is that for KIDS cPLA2 of the present invention while the right side is that for cPLA2α.
Incidentally, the phospholipase A2 activity is given in terms of the difference from the control.

[4] = Calcium dependency of enzymatic activity (EDTA-Ca); format: biochemical; conditions: substrate 1-Pam-2-[^14C]arachidonoyl-PC
Description: Then, calcium dependency of cPLA2α and KIDS cPLA2 of the present invention on enzymatic activity was investigated using 1-Pam-2-[^14C]arachidonoyl-PC as a substrate. EDTA-Ca was used as a calcium source.
The solid lines in FIG. 8 are the case of KIDS cPLA of the present invention while the broken lines therein are the case of cPLA2α. In each of them, the black dots (●) are the data in the absence of EDTA-Ca while the open circles (◯) are those in the presence of EDTA-Ca.
It is noted that, in the case of KIDS cPLA2 of the present invention, an activity of around 40% is maintained even […] while, in the case of cPLA2α, the activity is reduced to an extent of around 10-15% […].

## C=C(C)[C@H]1CN[C@H](C(=O)O)[C@H]1CC(=O)O [kainic acid]
[1]
  Expression of KIDS cPLA2 protein: drastically induced in the hippocampal dentate gyrus
Nerve stem cells
  Expression of KIDS cPLA2: specific expression of KIDS cPLA2 of the present invention was confirmed
[2]
  Expression pattern of KIDS cPLA2 mRNA: drastically induced in the hippocampal dentate gyrus

B1: cPLA2α: cytosolic phospholipase A2 (cPLA2α) of 85 kDa, the conventional full-length enzyme (protein, UniProt P47712 1-749, looked up)
chain: MSFIDPYQHIIVEHQYSHKFTVVVLRATKVTKGAFGDMLDTPDPYVELFISTTPDSRKRTRHFNNDINPVWNETFEFILDPNQENVLEITLMDANYVMDETLGTATFTVSSMKVGEKKEVPFIFNQVTEMVLEMSLEVCSCPDLRFSMALCDQEKTFRQQRKEHIRESMKKLLGPKNSEGLHSARDVPVVAILGSGGGFRAMVGFSGVMKALYESGILDCATYVAGLSGSTWYMSTLYSHPDFPEKGPEEINEELMKNVSHNPLLLLTPQKVKRYVESLWKKKSSGQPVTFTDIFGMLIGETLIHNRMNTTLSSLKEKVNTAQCPLPLFTCLHVKPDVSELMFADWVEFSPYEIGMAKYGTFMAPDLFGSKFFMGTVVKKYEENPLHFLMGVWGSAFSILFNRVLGVSGSQSRGSTMEEELENITTKHIVSNDSSDSDDESHEPKGTENEDAGSDYQSDNQASWIHRMIMALVSDSALFNTREGRAGKVHNFMLGLNLNTSYPLSPLSDFATQDSFDDDELDAAVADPDEFERIYEPLDVKSKKIHVVDSGLTFNLPYPLILRPQRGVDLIISFDFSARPSDSSPPFKELLLAEKWAKMNKLPFPKIDPYVFDREGLKECYVFKPKNPDMEKDCPTIIHFVLANINFRKYRAPGVPRETEEEKEIADFDIFDDPESPFSTFNFQYPNQAFKRLHDLMHFNTLNNIDVIKEAMVESIEYRRQNPSRCSVSLSNVEARRFFNKEFLSKPKA
modifications: full-length
notes: cytosolic phospholipase A2 (cPLA2α) of 85 kDa, the conventional full-length enzyme
[3]; substrate 1-Pam-2-[^14C]arachidonoyl-PC
  Phospholipase A2 Activity: 24.4 ± 1.4 pmol/min
[3]; substrate 1-Pam-2-[^14C]linoleoyl-PC
  Phospholipase A2 Activity: 11.9 ± 1.8 pmol/min
[3]; substrate 1-Pam-2-[^14C]oleoyl-PC
  Phospholipase A2 Activity: 9.1 ± 1.1 pmol/min
[3]; substrate 1-Pam-2-[^14C]palmitoyl-PC
  Phospholipase A2 Activity: 9.8 ± 1.7 pmol/min
[4]; EDTA-Ca, FIG. 9
  Activity maintained in the presence of calcium (relative ratio): 10-15%
[4]; with and without EDTA-Ca, FIG. 8
  Change of enzymatic activity by the presence of calcium: sudden reduction in the activity by the presence of calcium

Reference: patent publication US7332318B2, “Calcium-independent phospholipases A2, genes thereof and promoter of the same” (Japan Science and Technology Agency, priority 2001, dated 2008)
